Results on five molecules are retold here after publication PMC2965674, “Functional Roles of the N- and C-Terminal Regions of the Human Mitochondrial Single-Stranded DNA-Binding Protein” (PLoS ONE, 2010).

Series [1] deals with HsmtSSBΔN, deletion variant lacking the first 9 residues in the N-terminus of mature HsmtSSB (human). In words: SEC + other: glycerol gradient velocity sedimentation; 12-30% glycerol gradients, 264,000 x g, 63 hr, 4°C, 35 mM Tris-HCl pH 7.5, 100 mM NaCl, 2 mM EDTA, 5 mM DTT; Superdex 75 gel filtration in the same buffer with 8% glycerol, 4°C; native mass calculated from the S value and the Stokes radius.

Series [2] deals with the molecule itself. The description is as above.
Another series concerns the target T1, HsmtSSBΔC (Homo sapiens, UniProt Q04837 =M+17-141, internal_change).
T1 sequence: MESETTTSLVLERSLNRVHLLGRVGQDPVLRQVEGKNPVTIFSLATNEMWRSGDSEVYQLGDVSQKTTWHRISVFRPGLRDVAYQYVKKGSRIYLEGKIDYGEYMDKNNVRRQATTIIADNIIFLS
Briefly: EMSA; 50 mM NaCl, 4 mM Mg2+; apparent Kd, protein as tetramer; 20 mM Tris-HCl pH 7.5, 1 mM DTT, 4 mM MgCl2, 50 mM NaCl, 36 fmol 48-mer in 20 µL, 20°C 10 min; 6% native PAGE. To be noted: protein: recombinant; tags: none (untagged); chain copies: 4; label: 5'-32P; single strand. On the technique in general: A gel shift assay detects complexes by their altered migration in electrophoresis.

In series [3] the target is T2, HsmtSSBwt (mature human mitochondrial SSB) (Homo sapiens, UniProt Q04837 17-148).
T2 sequence: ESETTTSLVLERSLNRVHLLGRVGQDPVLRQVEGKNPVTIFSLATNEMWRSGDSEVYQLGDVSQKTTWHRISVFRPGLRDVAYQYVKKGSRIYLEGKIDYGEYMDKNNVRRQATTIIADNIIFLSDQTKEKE
Described as above. The conditions noted are these: protein: recombinant; tags: none (untagged); chain copies: 4; label: 5'-32P; single strand.

In the next series the target is T3, HsmtSSBΔN (Homo sapiens, UniProt Q04837 =M+26-148, internal_change).
T3 sequence: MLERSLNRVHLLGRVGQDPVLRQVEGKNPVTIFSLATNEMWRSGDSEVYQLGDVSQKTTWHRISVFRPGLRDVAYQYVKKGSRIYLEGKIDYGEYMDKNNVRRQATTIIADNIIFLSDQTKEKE
The series is described as above. To be noted: protein: recombinant; tags: none (untagged); chain copies: 4; label: 5'-32P; single strand.

A further series deals with T4, HsmtSSBΔNΔC (Homo sapiens, UniProt Q04837 =M+26-141, internal_change).
T4 sequence: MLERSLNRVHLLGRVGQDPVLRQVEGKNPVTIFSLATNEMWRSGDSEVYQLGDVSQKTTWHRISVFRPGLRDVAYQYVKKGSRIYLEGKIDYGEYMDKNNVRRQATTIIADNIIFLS
The series is described as above. The conditions noted are these: protein: recombinant; tags: none (untagged); chain copies: 4; label: 5'-32P; single strand.

Regarding “HsmtSSBΔN, deletion variant lacking the first 9 residues in the N-terminus of mature HsmtSSB (domain or fragment)”, the stoichiometry N (commonly a count of units in the complex or per binding partner) in series [1] was 4.

B1: human mitochondrial single-stranded DNA-binding protein, mature wild type (HsmtSSBwt) (natural protein, UniProt Q04837 17-148, looked up)
chain: ESETTTSLVLERSLNRVHLLGRVGQDPVLRQVEGKNPVTIFSLATNEMWRSGDSEVYQLGDVSQKTTWHRISVFRPGLRDVAYQYVKKGSRIYLEGKIDYGEYMDKNNVRRQATTIIADNIIFLSDQTKEKE
notes: numbers count on: the mature protein; Untagged; The forward primer (CATATG GAGTCC...) puts a start methionine before the first mature residue; also called human mtSSB; source: E. coli BL21(DE3), pET-11a, untagged, purified (Blue Sepharose, phosphocellulose)
For B1, in series [2], the “stoichiometry N” value was 4.

B2: HsmtSSBΔC, deletion variant lacking the last 7 residues in the C-terminus of HsmtSSB (domain or fragment, human, UniProt Q04837 17-141, looked up)
chain: ESETTTSLVLERSLNRVHLLGRVGQDPVLRQVEGKNPVTIFSLATNEMWRSGDSEVYQLGDVSQKTTWHRISVFRPGLRDVAYQYVKKGSRIYLEGKIDYGEYMDKNNVRRQATTIIADNIIFLS
notes: human mtSSB, mature protein lacking its last 7 residues; numbers count on: the mature protein; Untagged; The reverse primer puts a new stop codon after codons that read ...D-N-I-I-F-L-S. A start methionine precedes the first mature residue
With B2, the “stoichiometry N” value in series [2] is 4.

B3: HsmtSSBΔNΔC, variant of HsmtSSB that lacks both termini (first 9 and last 7 residues of the mature protein) (domain or fragment, human, UniProt Q04837 26-141, looked up)
chain: LERSLNRVHLLGRVGQDPVLRQVEGKNPVTIFSLATNEMWRSGDSEVYQLGDVSQKTTWHRISVFRPGLRDVAYQYVKKGSRIYLEGKIDYGEYMDKNNVRRQATTIIADNIIFLS
notes: human mtSSB, mature protein lacking its first 9 and its last 7 residues; numbers count on: the mature protein; Untagged; Made with the forward primer of ΔN (new start methionine before L-E-R-S) and the reverse primer of ΔC (stop after ...F-L-S); source: E. coli BL21(DE3), pET-11a, untagged, purified (Blue Sepharose, phosphocellulose)
Consider B3, for which the “stoichiometry N” value in series [2] is 4.

B4: 48-mer ssDNA oligonucleotide (ssDNA)
DNA: GGACTATTTATTAAATATATTTAAGAACTAATTCCAGCTGAGCGCCGG
With B4, the Kd (with HsmtSSBΔC; in series [3]; in the series with HsmtSSBΔN; with HsmtSSBΔNΔC) was approximately 5 nM throughout.
